# Source: US20060263802A1 (CRUCELL HOLLAND B V, published 2006)
# B1: human monoclonal antibody CRJA (antibody, V domains shown)
# VH: EVQLLESGGGLVQPGGSLRLSCAASGFTFSNYAMSWVRQAPGKGLEWVSAISASGHSTYLADSVKGRFTISRDNSKNTLYLQMNSLRAEDTAVYYCAKDREVTMIVVLNGGFDYWGQGTRVTVSS
# VL: EIVLTQSPATLSLSPGERATLACRASQTASRYLAWYQQKPGQAPRLLIYDTSNRATGIPARFSGSGSGTDFTLSISSLEPEDFAVYYCQQRFNWPWTFGQGTKVEFK
# What was measured:
# Experiment in all cases: PEPSCAN ELISA, looped peptide, antibody 10 µg/ml
# [1] = biological target: looped/cyclic peptide … (rabies virus strain ERA)
# [2] = biological target: looped/cyclic peptide … (rabies virus strain ERA); remark: listed apart in the source
# [3] = biological target: looped/cyclic peptide … (rabies virus strain ERA); remark: listed apart in the source
# [4] = biological target: looped/cyclic peptide … (rabies virus strain ERA); remark: listed apart in the source
# [5] = biological target: looped/cyclic peptide … (rabies virus strain ERA); remark: listed apart in the source
# [6] = biological target: looped/cyclic peptide … (rabies virus strain ERA); remark: listed apart in the source
# [7] = biological target: looped/cyclic peptide … (rabies virus strain ERA); remark: listed apart in the source
# [8] = biological target: looped/cyclic peptide … (rabies virus strain ERA); remark: listed apart in the source
# [9] = biological target: looped/cyclic peptide … (rabies virus strain ERA); remark: listed apart in the source
# [10] = biological target: looped/cyclic peptide … (rabies virus strain ERA); remark: listed apart in the source
# [11] = biological target: looped/cyclic peptide … (rabies virus strain ERA); remark: listed apart in the source
# [12] = biological target: looped/cyclic peptide … (rabies virus strain ERA); remark: listed apart in the source
# [13] = biological target: looped/cyclic peptide … (rabies virus strain ERA); remark: listed apart in the source
# [14] = biological target: looped/cyclic peptide … (rabies virus strain ERA); remark: listed apart in the source
# [15] = biological target: looped/cyclic peptide … (rabies virus strain ERA); remark: listed apart in the source
# [16] = biological target: looped/cyclic peptide … (rabies virus strain ERA); remark: listed apart in the source
# [17] = biological target: looped/cyclic peptide … (rabies virus strain ERA); remark: listed apart in the source
# [18] = biological target: looped/cyclic peptide … (rabies virus strain ERA); remark: listed apart in the source
# [19] = biological target: looped/cyclic peptide … (rabies virus strain ERA); remark: listed apart in the source
# [20] = biological target: looped/cyclic peptide … (rabies virus strain ERA); remark: listed apart in the source
# [21] = biological target: looped/cyclic peptide … (rabies virus strain ERA); remark: listed apart in the source
# [22] = biological target: looped/cyclic peptide … (rabies virus strain ERA); remark: listed apart in the source
# [23] = biological target: looped/cyclic peptide … (rabies virus strain ERA); remark: listed apart in the source
# [24] = biological target: looped/cyclic peptide … (rabies virus strain ERA); remark: listed apart in the source
# [25] = biological target: looped/cyclic peptide … (rabies virus strain ERA); remark: listed apart in the source
# [26] = biological target: looped/cyclic peptide … (rabies virus strain ERA); remark: listed apart in the source
# [27] = biological target: looped/cyclic peptide … (rabies virus strain ERA); remark: listed apart in the source
# [28] = biological target: looped/cyclic peptide … (rabies virus strain ERA); remark: listed apart in the source
# [29] = biological target: looped/cyclic peptide … (rabies virus strain ERA); remark: listed apart in the source
# [30] = biological target: looped/cyclic peptide … (rabies virus strain ERA); remark: listed apart in the source
# [31] = biological target: looped/cyclic peptide … (rabies virus strain ERA); remark: listed apart in the source
# [32] = biological target: looped/cyclic peptide … (rabies virus strain ERA); remark: listed apart in the source
# [33] = biological target: looped/cyclic peptide … (rabies virus strain ERA); remark: listed apart in the source
# [34] = biological target: looped/cyclic peptide … (rabies virus strain ERA); remark: listed apart in the source
# [35] = biological target: looped/cyclic peptide … (rabies virus strain ERA); remark: listed apart in the source
# [36] = biological target: looped/cyclic peptide … (rabies virus strain ERA); remark: listed apart in the source
# [37] = biological target: looped/cyclic peptide … (rabies virus strain ERA); remark: listed apart in the source
# [38] = biological target: looped/cyclic peptide … (rabies virus strain ERA); remark: listed apart in the source
# [39] = biological target: looped/cyclic peptide … (rabies virus strain ERA); remark: listed apart in the source
# [40] = biological target: looped/cyclic peptide … (rabies virus strain ERA); remark: listed apart in the source
# [41] = biological target: looped/cyclic peptide … (rabies virus strain ERA); remark: listed apart in the source
# [42] = biological target: looped/cyclic peptide … (rabies virus strain ERA); remark: listed apart in the source
# [43] = biological target: looped/cyclic peptide … (rabies virus strain ERA); remark: listed apart in the source
# [44] = biological target: looped/cyclic peptide … (rabies virus strain ERA); remark: listed apart in the source
# [45] = biological target: looped/cyclic peptide … (rabies virus strain ERA); remark: listed apart in the source
# [46] = biological target: looped/cyclic peptide … (rabies virus strain ERA); remark: listed apart in the source
# [47] = biological target: looped/cyclic peptide … (rabies virus strain ERA); remark: listed apart in the source
# [48] = biological target: looped/cyclic peptide … (rabies virus strain ERA); remark: listed apart in the source
# [49] = biological target: looped/cyclic peptide … (rabies virus strain ERA); remark: listed apart in the source
# [50] = biological target: looped/cyclic peptide … (rabies virus strain ERA); remark: listed apart in the source
# [51] = biological target: looped/cyclic peptide … (rabies virus strain ERA); remark: listed apart in the source
# [52] = biological target: looped/cyclic peptide … (rabies virus strain ERA); remark: listed apart in the source
# [53] = biological target: looped/cyclic peptide … (rabies virus strain ERA); remark: listed apart in the source
# [54] = biological target: looped/cyclic peptide … (rabies virus strain ERA); remark: listed apart in the source
# [55] = biological target: looped/cyclic peptide … (rabies virus strain ERA); remark: listed apart in the source
# [56] = biological target: looped/cyclic peptide … (rabies virus strain ERA); remark: listed apart in the source
# [57] = biological target: looped/cyclic peptide … (rabies virus strain ERA); remark: listed apart in the source
# [58] = biological target: looped/cyclic peptide … (rabies virus strain ERA); remark: listed apart in the source
# [59] = biological target: looped/cyclic peptide … (rabies virus strain ERA); remark: listed apart in the source
# [60] = biological target: looped/cyclic peptide … (rabies virus strain ERA); remark: listed apart in the source
binder,measurement,setting,value
B1,OD value,[1],72 OD
same,OD value,[2],100 OD
same,OD value,[3],117 OD
same,OD value,[4],90 OD
same,OD value,[5],113 OD
same,OD value,[6],123 OD
same,OD value,[7],104 OD
same,OD value,[8],86 OD
same,OD value,[9],108 OD
same,OD value,[10],78 OD
same,OD value,[11],41 OD
same,OD value,[12],57 OD
same,OD value,[13],96 OD
same,OD value,[14],93 OD
same,OD value,[15],113 OD
same,OD value,[16],58 OD
same,OD value,[17],74 OD
same,OD value,[18],41 OD
same,OD value,[19],69 OD
same,OD value,[20],90 OD
same,OD value,[21],79 OD
same,OD value,[22],62 OD
same,OD value,[23],82 OD
same,OD value,[24],92 OD
same,OD value,[25],96 OD
same,OD value,[26],125 OD
same,OD value,[27],137 OD
same,OD value,[28],79 OD
same,OD value,[29],38 OD
same,OD value,[30],89 OD
same,OD value,[31],92 OD
same,OD value,[32],51 OD
same,OD value,[33],46 OD
same,OD value,[34],45 OD
same,OD value,[35],65 OD
same,OD value,[36],96 OD
same,OD value,[37],89 OD
same,OD value,[38],136 OD
same,OD value,[39],58 OD
same,OD value,[40],87 OD
same,OD value,[41],82 OD
same,OD value,[42],92 OD
same,OD value,[43],86 OD
same,OD value,[44],38 OD
same,OD value,[45],86 OD
same,OD value,[46],71 OD
same,OD value,[47],38 OD
same,OD value,[48],96 OD
same,OD value,[49],72 OD
same,OD value,[50],83 OD
same,OD value,[51],96 OD
same,OD value,[52],96 OD
same,OD value,[53],45 OD
same,OD value,[54],98 OD
same,OD value,[55],100 OD
same,OD value,[56],93 OD
same,OD value,[57],43 OD
same,OD value,[58],54 OD
same,OD value,[59],90 OD
same,OD value,[60],84 OD
